Measurements reported in paper PMC11906780 (Scientific Reports, 2025).

B1: Fab 3D3 (papain fragment of mAb 3D3) (Fab, V domains shown)
VH: EEQLVESGGGLVQPGRSLRLSCVGSGLRFEEHAMHWVRQAPGRGLEWVSGISWNSGSVGYADSVKGRFTTSRDNAKDILFLEMNTLRSEDTALYFCAIMVATTKNDFHYYKDVWGKGTTVTVSS
VL: QIVLTQSPATLSLSPGERATLSCRASQSVSNHLAWYQQKPGQAPRLLIYETSNRATGIPPRFSGSGSGTDFTLTISSLEPEDFAVYYCQQRNNWYTFGQGTKLEIK
notes: source: papain digestion of the full length mAb from CHO-S, Fc removed with protein A, purified (Superdex 200 SEC)
B2: human monoclonal antibody 3D3 (recombinant human IgG1) (antibody, V domains shown)
VH: B1 VH
VL: B1 VL
notes: also called mAb 3D3; TRL3D3; source: CHO-S, electroporated, purified (HiTrap Protein G)
B3: human monoclonal antibody 2D10 (recombinant human IgG1) (antibody, V domains shown)
VH: QVQLVQSGPEVKKPGASVRLSCKASGYVFTNYGVSWVRQAPGQGLEWMGWSSPYNGNTYYAQKLKARVTMTTDTSTNTAYMELRSLRSDDTAVYYCGRDMLGVVQAVAGPFDSWGQGTLVTVSS
VL: DTPMTQSPSSVSASVGDRVTISCRASQGISNSLAWYQQKLGKAPQLLIYAASSLQSGVPSRFSGSGSGTDFTLTISSLQPEDFATYYCQQTNTFPFTFGPGTKVEVR
notes: also called mAb 2D10; source: CHO-S, electroporated, purified (HiTrap Protein G)
B4: Fab 2D10 (papain fragment of mAb 2D10) (Fab, V domains shown)
VH: B3 VH
VL: B3 VL
notes: as for B1
B5: human monoclonal antibody 3G12 (recombinant human IgG1) (antibody, V domains shown)
VH: QLQLQESGPGLVKPSETLSLTCTVSGGSISSSNYYWGWIRQPPGKGLEWIASIHDSGSIYYNPSLRSRVTISVDTSKNQFSLKLSSVTAADTAVYYCARHLVWFGELRNNWFDPWGQGTLVTVAS
VL: EIVMTQSPATLSVSPGERATLSCRASQSVNSNLAWYQHKPGQAPRLLIYGASTRATGIPARFSGSGSGTDFTLTISSLQSEDFAVYYCQQYNNWPLFGPGTKVDLK
notes: also called mAb 3G12; source: CHO-S, electroporated, purified (HiTrap Protein G)

Experiments:
[1] = target: RSV G^ecto with GalNAc-restricted O-glycosylation (Human respiratory syncytial virus A, …, UniProt P03423); test: cryo-EM structure; settings: both partners purified
[2] = target: T1, RSV strain A2 (RSV/A2) G glycoprotein ectodomain (RSV G^ecto) (Human respiratory syncytial virus A, …, UniProt P03423); test: BLI; settings: both partners purified
T1 construct: not shown: 6xHistidine-Tag, C-terminal, kept
T1 sequence (P03423 whole entry, looked up, the tested form may be a part): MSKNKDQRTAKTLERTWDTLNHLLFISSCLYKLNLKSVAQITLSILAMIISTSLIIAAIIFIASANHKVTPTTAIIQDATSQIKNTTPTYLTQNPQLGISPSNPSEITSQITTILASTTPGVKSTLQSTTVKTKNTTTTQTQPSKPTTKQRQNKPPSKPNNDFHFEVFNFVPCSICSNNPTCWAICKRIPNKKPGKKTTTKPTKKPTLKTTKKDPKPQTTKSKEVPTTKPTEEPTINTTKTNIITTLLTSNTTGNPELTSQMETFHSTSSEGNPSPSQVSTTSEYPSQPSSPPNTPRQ

Chain of RSV G^ecto with GalNAc-restricted O-glycosylation (P03423 whole entry, looked up, the tested form may be a part): as above

Binder | binding result [1] | binding result [2]
B1 | binds | –
B2 | – | binds
B3 | – | binds
B4 | binds | –
B5 | – | binds
